Data taken from the supplement of paper PMC11246515.
± gives the standard deviation of the averaged measurements.

Experiment: total protein half-life in vivo (active degradation + dilution); higher = more stable protein
[1] = E. coli NCM3722 delta-clpP delta-lon delta-hslV, growth: N-lim chemostat, doubling time 6 h
[2] = E. coli NCM3722 delta-hslV, growth: N-lim chemostat, doubling time 6 h
[3] = E. coli NCM3722 delta-lon, growth: N-lim chemostat, doubling time 6 h
[4] = E. coli NCM3722 delta-smpB, growth: N-lim chemostat, doubling time 6 h
[5] = wild type E. coli NCM3722, growth: C-lim chemostat, doubling time 3 h
[6] = wild type E. coli NCM3722, growth: C-lim chemostat, doubling time 6 h
[7] = wild type E. coli NCM3722, growth: C-lim chemostat, doubling time 12 h
[8] = wild type E. coli NCM3722, growth: N-lim chemostat, doubling time 6 h
[9] = wild type E. coli NCM3722, growth: N-lim chemostat, doubling time 12 h
[10] = wild type E. coli NCM3722, growth: P-lim chemostat, doubling time 6 h
[11] = wild type E. coli NCM3722, growth: P-lim chemostat, doubling time 12 h
[12] = E. coli NCM3722 delta-clpP, growth: N-lim chemostat, doubling time 6 h

Sequence	total protein half-life in vivo [1] [h]	total protein half-life in vivo [2] [h]	total protein half-life in vivo [3] [h]	total protein half-life in vivo [4] [h]	total protein half-life in vivo [5] [h]	total protein half-life in vivo [6] [h]	total protein half-life in vivo [7] [h]	total protein half-life in vivo [8] [h]	total protein half-life in vivo [9] [h]	total protein half-life in vivo [10] [h]	total protein half-life in vivo [11] [h]	total protein half-life in vivo [12] [h]
MAVEVKYVVIREGEEKMSFTSKKEADAYDKMLDTADLLDTWLTNSPVQMEDEQREALSLWLAEQKDVLSTILKTGKLPSPQVVGAESEEEDASHAA [P0ACY9]	5.68 ± 0.58	0.932 ± 0.076	0.8842 ± 0.0032	2.19 ± 0.32	0.978 ± 0.016	1.17 ± 0.072	1.28	1.08	1.8 ± 0.069	0.976 ± 0.2	2.4	–
MQILKVIGLLMEYPDELLWECKEDALALIRRDAPMLTDFTHNLLNAPLLDKQAEWCEVFDRGRTTSLLLFEHVHAESRDRGQAMVDLLAEYEKVGLQLDCRELPDYLPLYLEYLSVLPDDQAKEGLLNVAPILALLGGRLKQREAPWYALFDALLQLAGSSLSSDSVTKQVNSEERDDTRQALDAVWEEEQVKFIEDNATACDSSPLNQYQRRFSQDVAPQYVDISAGGGK	3.93 ± 0.43	0.577	0.917	0.553	–	1.45 ± 0.12	1.78	0.752 ± 0.1	0.75	–	1.94 ± 0.61	1.45
MSLNMFWFLPTHGDGHYLGTEEGSRPVDHGYLQQIAQAADRLGYTGVLIPTGRSCEDAWLVAASMIPVTQRLKFLVALRPSVTSPTVAARQAATLDRLSNGRALFNLVTGSDPQELAGDGVFLDHSERYEASAEFTQVWRRLLQRETVDFNGKHIHVRGAKLLFPAIQQPYPPLYFGGSSDVAQELAAEQVDLYLTWGEPPELVKEKIEQVRAKAAAHGRKIRFGIRLHVIVRETNDEAWQAAERLISHLDDETIAKAQAAFARTDSVGQQRMAALHNGKRDNLEISPNLWAGVGLVRGGAGTALVGDGPTVAARINEYAALGIDSFVLSGYPHLEEAYRVGELLFPLLDVAIPEIPQPQPLNPQGEAVANDFIPRKVAQS	5.43 ± 0.79	–	–	–	–	–	–	–	–	–	–	–
MGSEISKKDITRLGFRSSLLQASFNYERMQAGGFTWAMLPILKKIYKDDKPGLSAAMKDNLEFINTHPNLVGFLMGLLISMEEKGENRDTIKGLKVALFGPIAGIGDAIFWFTLLPIMAGICSSFASQGNLLGPILFFAVYLLIFFLRVGWTHVGYSVGVKAIDKVRENSQMIARSATILGITVIGGLIASYVHINVVTSFAIDNTHSVALQQDFFDKVFPNILPMAYTLLMYYFLRVKKAHPVLLIGVTFVLSIVCSAFGIL	–	–	–	–	–	–	–	–	–	–	4.67	–
MIKTTPHKIVILMGILLSPSVFATDINVEFTATVKATTCNITLTGNNVTNDGNNNYTLRIPKMGLDKIANKTTESQADFKLVASGCSSGISWIDTTLTGNASSSSPKLIIPQSGDSSSTTSNIGMGFKKRTTDDATFLKPNSAEKIRWSTDEMQPDKGLEMTVALRETDAGQGVPGNFRALATFNFIYQ	–	–	–	–	–	–	10.5	–	–	–	–	–
MKRLKNELNALVNRGVDRHLRLAVTGLSRSGKTAFITAMVNQLLNIHAGARLPLLSAVREERLLGVKRIPQRDFGIPRFTYDEGLAQLYGDPPAWPTPTRGVSEIRLALRFKSNDSLLRHFKDTSTLYLEIVDYPGEWLLDLPMLAQDYLSWSRQMTGLLNGQRGEWSAKWRMMSEGLDPLAPADENRLADIAAAWTDYLHHCKEQGLHFIQPGRFVLPGDMAGAPALQFFPWPDVDTWGESKLAQADKHTNAGMLRERFNYYCEKVVKGFYKNHFLRFDRQIVLVDCLQPLNSGPQAFNDMRLALTQLMQSFHYGQRTLFRRLFSPVIDKLLFAATKADHVTIDQHANMVSLLQQLIQDAWQNAAFEGISMDCLGLASVQATTSGIIDVNGEKIPALRGNRLSDGAPLTVYPGEVPARLPGQAFWDKQGFQFEAFRPQVMDVDKPLPHIRLDAALEFLIGDKLR	6.51 ± 0.91	6.01 ± 0.15	5.93 ± 0.19	5.925 ± 0.037	2.94 ± 0.0058	6.04 ± 0.74	10.8 ± 3.9	5.52 ± 0.18	12.23 ± 0.11	6.1 ± 0.29	12.2 ± 0.47	6.53 ± 0.49
MNQSYGRLVSRAAIAATAMASLLLLIKIFAWWYTGSVSILAALVDSLVDIGASLTNLLVVRYSLQPADDNHSFGHGKAESLAALAQSMFISGSALFLFLTGIQHLISPTPMTDPGVGVIVTIVALICTIILVSFQRWVVRRTQSQAVRADMLHYQSDVMMNGAILLALGLSWYGWHRADALFALGIGIYILYSALRMGYEAVQSLLDRALPDEERQEIIDIVTSWPGVSGAHDLRTRQSGPTRFIQIHLEMEDSLPLVQAHMVADQVEQAILRRFPGSDVIIHQDPCSVVPREGKRSMLS	–	–	–	–	–	–	14.3	6.34	–	5.52	–	–
MRIGQYQLRNRLIAAPMAGITDRPFRTLCYEMGAGLTVSEMMSSNPQVWESDKSRLRMVHIDEPGIRTVQIAGSDPKEMADAARINVESGAQIIDINMGCPAKKVNRKLAGSALLQYPDVVKSILTEVVNAVDVPVTLKIRTGWAPEHRNCEEIAQLAEDCGIQALTIHGRTRACLFNGEAEYDSIRAVKQKVSIPVIANGDITDPLKARAVLDYTGADALMIGRAAQGRPWIFREIQHYLDTGELLPPLPLAEVKRLLCAHVRELHDFYGPAKGYRIARKHVSWYLQEHAPNDQFRRTFNAIEDASEQLEALEAYFENFA [P0ABT5]	4.65 ± 0.67	–	–	2.21 ± 0.077	2.88 ± 0.28	3.67 ± 0.67	6.75 ± 0.78	2.23	3.47	5.13 ± 0.28	8.25 ± 0.84	3.28
MATLIRLFIHPVKSMRGIGLTHALADVSGLAFDRIFMITEPDGTFITARQFPQMVRFTPSPVHDGLHLTAPDGSSAYVRFADFATQDAPTEVWGTHFTARIAPDAINKWLSGFFSREVQLRWVGPQMTRRVKRHNTVPLSFADGYPYLLANEASLRDLQQRCPASVKMEQFRPNLVVSGASAWEEDRWKVIRIGDVVFDVVKPCSRCIFTTVSPEKGQKHPAGEPLKTLQSFRTAQDNGDVDFGQNLIARNSGVIRVGDEVEILATAPAKIYGAAAADDTANITQQPDANVDIDWQGQAFRGNNQQVLLEQLENQGIRIPYSCRAGICGSCRVQLLEGEVTPLKKSAMGDDGTILCCSCVPKTALKLAR	5.8 ± 0.31	6.18 ± 1.1	5.9 ± 0.56	5.39 ± 0.28	2.97 ± 0.61	6.03 ± 0.76	10.1 ± 0.74	5.69 ± 0.15	10.54 ± 0.032	5.71 ± 0.41	10.2 ± 1.8	5.98 ± 1.1
